Measurements taken from the supplement of paper PMC9233669.
Fewer inactive variants are shown than the library holds.

Key:
biotinyl-Trp-oxazolone = assay: self-aminoacylation, catalytic enhancement (BWO) (fold over background); higher = more active; k-Seq, kA / k0A0; sequences stand for … in GGGAAUGGAUCCACAUCUACGAAUUC…UUCACUGCAGACUUGACGAAGCUG
Procedure, shortened: (§1)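 Working in 50 μL HEPES/NaCl/KCl/MgCl2/CaCl2 buffer with 5% acetonitrile at pH 6.9–7.0, mutagenized RNA pools (0.43 μM; 21-nt variable region) were reacted with 2–1250 μM of each biotinyl-aminoacyl-oxazolone for 90 minutes at room temperature. Streptavidin capture followed, with quantification by triplicate qPCR and Illumina sequencing. Catalytic enhancement is reported as median kA over the uncatalyzed rate, the low-activity peak of a bimodal Gaussian fit to the data.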

biotinyl-Phe-oxazolone = assay: self-aminoacylation, catalytic enhancement (BFO) (fold over background); higher = more active; k-Seq, kA / k0A0; sequences stand for … in GGGAAUGGAUCCACAUCUACGAAUUC…UUCACUGCAGACUUGACGAAGCUG
Procedure, shortened: as §1

biotinyl-Val-oxazolone = assay: self-aminoacylation, catalytic enhancement (BVO) (fold over background); higher = more active; k-Seq, kA / k0A0; sequences stand for … in GGGAAUGGAUCCACAUCUACGAAUUC…UUCACUGCAGACUUGACGAAGCUG
Procedure, shortened: as §1

biotinyl-Leu-oxazolone = assay: self-aminoacylation, catalytic enhancement (BLO) (fold over background); higher = more active; k-Seq, kA / k0A0; sequences stand for … in GGGAAUGGAUCCACAUCUACGAAUUC…UUCACUGCAGACUUGACGAAGCUG
Procedure, shortened: as §1

biotinyl-Met-oxazolone = assay: self-aminoacylation, catalytic enhancement (BMO) (fold over background); higher = more active; k-Seq, kA / k0A0; sequences stand for … in GGGAAUGGAUCCACAUCUACGAAUUC…UUCACUGCAGACUUGACGAAGCUG
Procedure, shortened: as §1

biotinyl-Ile-oxazolone = assay: self-aminoacylation, catalytic enhancement (BIO) (fold over background); higher = more active; k-Seq, kA / k0A0; sequences stand for … in GGGAAUGGAUCCACAUCUACGAAUUC…UUCACUGCAGACUUGACGAAGCUG
Procedure, shortened: as §1

Row | Sequence | self-aminoacylation (biotinyl-Trp-oxazolone) | self-aminoacylation (biotinyl-Phe-oxazolone) | self-aminoacylation (biotinyl-Val-oxazolone) | self-aminoacylation (biotinyl-Leu-oxazolone) | self-aminoacylation (biotinyl-Met-oxazolone) | self-aminoacylation (biotinyl-Ile-oxazolone)
1 | CCACACUUCAAUCAAUCUGUC [Fam1B.1 aminoacylation ribozyme variant] | 0.342 | 0.748 | 0.58 | 0.343 | 0.429 | 0.425
2 | CCACACUUCAAUCAAUGGGUC [Fam1B.1 aminoacylation ribozyme variant] | 0.467 | 0.724 | 0.724 | 0.564 | 0.651 | 0.801
3 | CCACACUUCAAUCCAUCGGUC [Fam1B.1 aminoacylation ribozyme variant] | 0.553 | 0.794 | 0.91 | 0.676 | 0.824 | 0.801
4 | CCACACUUCAAUUAAUCGGUC [Fam1B.1 aminoacylation ribozyme variant] | 15.6 | 26.1 | 1.06 | 1.09 | 0.937 | 1.01
5 | CCACACUUCACGCAAUUGGUC [Fam1B.1 aminoacylation ribozyme variant] | 0.792 | 0.859 | 1.03 | 0.957 | 0.667 | 0.951
6 | CCACACUUCACGCUAUCGGUC [Fam1B.1 aminoacylation ribozyme variant] | 0.951 | 1.09 | 1.17 | 0.971 | 1.03 | 1.13
7 | CCACACUUCAGACAAUCGGUC [Fam1B.1 aminoacylation ribozyme variant] | 1.29 | 1.33 | 1.26 | 1.53 | 0.902 | 1.17
8 | CCACACUUCAGGCAAUCGGGC [Fam1B.1 aminoacylation ribozyme variant] | 2.21 | 11 | 3.35 | 2.45 | 1.37 | 2.46
9 | CCACACUUCAGGCAAUCGGUA [Fam1B.1 aminoacylation ribozyme variant] | 1.04 | 1.97 | 1.33 | 1.23 | 1.43 | 1.24
10 | CCACACUUCAGGCAAUCGGUC [Fam1B.1 aminoacylation ribozyme variant] | 1.28 | 1.47 | 1.27 | 1.11 | 1.14 | 1.14
11 | CCACACUUCAGGCAGUCGGUC [Fam1B.1 aminoacylation ribozyme variant] | 1.32 | 0.789 | 1.48 | 1.62 | 1.04 | 1.48
12 | CCACACUUCAGUCAAUCGGUC [Fam1B.1 aminoacylation ribozyme variant] | 1.31 | 1.06 | 0.965 | 1.03 | 1.02 | 1.11
13 | CCACACUUCAUGCAAACGGUC [Fam1B.1 aminoacylation ribozyme variant] | 0.512 | 0.769 | 0.774 | 0.507 | 0.556 | 0.809
14 | CCACACUUCAUGCAAUAGGUC [Fam1B.1 aminoacylation ribozyme variant] | 0.467 | 1.03 | 0.834 | 0.637 | 0.582 | 0.711
15 | CCACACUUCAUGCAAUCGAUC [Fam1B.1 aminoacylation ribozyme variant] | 0.336 | 0.923 | 0.721 | 0.489 | 0.528 | 0.552
16 | CCACACUUCAUGCGAUCGGUC [Fam1B.1 aminoacylation ribozyme variant] | 0.917 | 0.762 | 1.17 | 1.12 | 0.828 | 1.1
17 | CCACACUUCAUUCAAUCGGUC [Fam1B.1 aminoacylation ribozyme variant] | 0.495 | 0.605 | 0.744 | 0.701 | 0.604 | 0.806
18 | CCACACUUCCAGCAAUCGAUC [Fam1B.1 aminoacylation ribozyme variant] | 0.611 | 0.92 | 0.959 | 0.579 | 0.673 | 0.83
19 | CCACACUUCCAGCAAUCGGGC [Fam1B.1 aminoacylation ribozyme variant] | 2.82 | 1.84 | 2.32 | 1.74 | 1.72 | 2
20 | CCACACUUCCAGUAAUCGGUC [Fam1B.1 aminoacylation ribozyme variant] | 0.792 | 0.618 | 1.1 | 0.829 | 0.791 | 1.02
21 | CCACACUUCCCGCAAUCGGUC [Fam1B.1 aminoacylation ribozyme variant] | 1.37 | 0.932 | 1.78 | 1.73 | 1.5 | 1.42
22 | CCACACUUCCGGCAAUCGGUC [Fam1B.1 aminoacylation ribozyme variant] | 2.13 | 5.25 | 2.12 | 1.59 | 2.02 | 1.72
23 | CCACACUUCGAGCAAUAGGUC [Fam1B.1 aminoacylation ribozyme variant] | 0.361 | 0.533 | 0.785 | 0.446 | 0.588 | 0.703
24 | CCACACUUCGAGCAAUCGAUC [Fam1B.1 aminoacylation ribozyme variant] | 0.387 | 0.547 | 0.481 | 0.487 | 0.361 | 0.471
25 | CCACACUUCGAGCAAUCGGAC [Fam1B.1 aminoacylation ribozyme variant] | 0.929 | 0.331 | 1.67 | 0.935 | 0.897 | 0.916
26 | CCACACUUCGAGCAAUCGGUU [Fam1B.1 aminoacylation ribozyme variant] | 1.65 | 0.768 | 1.63 | 1.1 | 1.83 | 1.41
